Experimental data as given in US20230331868A1.

Experiments:
[1] = target: bovine submaxillary mucin (bovine); assay: ELISA on BSM-coated wells; periodate-sensitive signal
[2] = target: bovine submaxillary mucin (bovine); assay: ELISA on BSM-coated wells; antibody from one liter production

| Binder | EC50 [1] | EC50 [2] |
| --- | --- | --- |
| Humanized 3F1 VL1,VH2 (antibody, V domains shown) VH: QVQLVQSGAEVKKPGASVKISCKASGYTFTDHAIHWVRQAPGQGLEWIGYISPGNGDIKYNEKFKDRVTLTADKSSSTASMHLRSLRSDDTAVYFCKRSLLALDYWGQGTLVTVSS VL: DIQMTQSPSSLSASVGDRVTITCKASQDVGTNIAWYQQKPGKAPKVLIYSASTRHTGVPSRFSGSGSGTDFTLTISSLQPEDFATYFCQQYSSFPLTFGQGTKVEIK | 1.4 nM | 0.57 nM |
| Humanized 3F1 VL1,VH4 (antibody, V domains shown) VH: EVQLVQSGAEVKKPGASVKISCKASGYTFTDHAIHWVRQAPGQGLEWIGYISPGSGDIKYNEKFKDRVTLTADKSSSTASMHLRSLRSDDTAVYFCKRSLLALDYWGQGTLVTVSS VL: DIQMTQSPSSLSASVGDRVTITCKASQDVGTNIAWYQQKPGKAPKVLIYSASTRHTGVPSRFSGSGSGTDFTLTISSLQPEDFATYFCQQYSSFPLTFGQGTKVEIK | 6.5 nM | – |
| Humanized 3F1 VL1,VH3 (antibody, V domains shown) VH: EVQLVQSGAEVKKPGASVKVSCKASGYTFTDHAIHWVRQAPGQGLEWMGYISPGSGDIKYNEKFKDRVTMTADKSSSTAYMQLRSLRSDDTAVYFCKRSLLALDYWGQGTLVTVSS VL: DIQMTQSPSSLSASVGDRVTITCKASQDVGTNIAWYQQKPGKAPKVLIYSASTRHTGVPSRFSGSGSGTDFTLTISSLQPEDFATYFCQQYSSFPLTFGQGTKVEIK | 12.2 nM | – |
| Humanized 2G12-2B2 VL0,VH3 (antibody, V domains shown) VH: EVQLVQSGAEVKKPGASVKVSCKASGYTFTDHAIHWVRQAPGQGLEWMGYFSPGNDDIKYNEKFRGRVTMTADKSSSTAYMELRSLRSDDTAVYFCKRSLSTPYWGQGTLVTVSS VL: DIVMTQSPDSLAVSLGERATINCKSSQSLLNRGNHKNYLTWYQQKPGQPPKLLIYWASTRESGVPDRFSGSGSGTDFTLTISSLQAEDVAVYYCQNDYTYPYTFGQGTKVEIK | 4.2 nM | 0.8 nM |
| Humanized 2G12-2B2 VL0,VH2 (antibody, V domains shown) VH: QVQLVQSGAEVKKPGASVKISCKASGYTFTDHAIHWVRQAPGQGLEWIGYFSPGNDDIKYNEKFRGRVTLTADKSSSTAYMELRSLRSDDTAVYFCKRSLSTPYWGQGTLVTVSS VL: DIVMTQSPDSLAVSLGERATINCKSSQSLLNRGNHKNYLTWYQQKPGQPPKLLIYWASTRESGVPDRFSGSGSGTDFTLTISSLQAEDVAVYYCQNDYTYPYTFGQGTKVEIK | 1.8 nM | – |
| Humanized 2G12-2B2 VL0,VH1 (antibody, V domains shown) VH: QVQLVQSGAEVKKPGASVKVSCKASGYTFTDHAIHWVRQAPGQGLEWMGYFSPGNDDIKYNEKFRGRVTMTADKSSSTAYMELRSLRSDDTAVYFCKRSLSTPYWGQGTLVTVSS VL: DIVMTQSPDSLAVSLGERATINCKSSQSLLNRGNHKNYLTWYQQKPGQPPKLLIYWASTRESGVPDRFSGSGSGTDFTLTISSLQAEDVAVYYCQNDYTYPYTFGQGTKVEIK | 4.5 nM | – |
| Humanized 2G12-2B2 VL2,VH1 (antibody, V domains shown) VH: QVQLVQSGAEVKKPGASVKVSCKASGYTFTDHAIHWVRQAPGQGLEWMGYFSPGNDDIKYNEKFRGRVTMTADKSSSTAYMELRSLRSDDTAVYFCKRSLSTPYWGQGTLVTVSS VL: DIVMTQSPDSLAVSLGERVTMSCKSSQSLLNRGNHKNYLTWYQQKPGQPPKLLIYWASTRESGVPDRFSGSGSGTDFTLTISSLQAEDVAVYYCQNDYTYPYTFGQGTKVEIK | 4.4 nM | – |
